According to the supplement of paper PMC12042874:
± gives the uncertainty stated by the source.

Experiment: amyloid nucleation score (Sup35N fusion, yeast selection) (log enrichment); library NNK1; higher = more nucleation; inactive = no reads after selection
In short: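 In psi-negative yeast, Sup35N fusions carrying peptides of 20 random codons were induced with 100 μM copper sulfate for 24 hours. The cells then grew 7 days at 30°C on medium lacking adenine and uracil, and plasmid inserts from input and output were Illumina-sequenced, excluding sequences with under 100 input reads. Nucleation score is the DiMSum log enrichment of output over input reads, centred on the mode score of non-aggregating sequences.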

Substance | amyloid nucleation score
LNVGVLGGRLLSGALVNSTM | 0.396 ± 0.65
LNWNCITCTLNFVKYVTDCR | 7.866 ± 0.046
LNYIQNC | inactive
LNYSWDWLVVCIVANVRTYD | 2.22 ± 0.12
LPCKIKKWIHWEFRSEFN | -2.06 ± 2.7
LPGVFAPCSDYLMVMDVGHS | -0.409 ± 0.35
LPIRASGNHL | 0.495 ± 0.79
LPSDSFAVI | 0.483 ± 0.81
LPTSTVSCQNWDTLLTLCSG | -0.094 ± 0.77
LPWRRGWSFSTLVSLTGLSA | 0.353 ± 0.31
LQAAGLRFGRICLFLDK | -0.259 ± 1.2
LQDFGKHPTLRCTVYRLHRP | -1.02 ± 0.83
LQILLLVSCLSQYAANKRRA | -0.291 ± 0.57
LQLCLPVFNHVMHVNWMRFY | -0.837 ± 2.4
LQRCAKLYSMSILTYAIIRF | -0.525 ± 0.28
LQRLY | -0.251 ± 0.35
LQSAVRWWHFDSRLGEAKLM | 0.902 ± 0.69
LQSFVLLGDRIYRRFCVLMN | 0.048 ± 1.2
LQTLGNWLHFKYAYWLLSNL | -0.55 ± 0.72
LQTSRHFSLRWWCMYSWGNS | 1.41 ± 0.51
LQYAKRDDIDSDVLLYKMYG | 0.203 ± 0.97
LRARMCYRAPLRFR | -0.257 ± 1.7
LRARVGGVEFVYSVQRRLKP | -0.167 ± 0.62
LRASAWHQFHFAV | 0.376 ± 0.78
LRFLWRRRS | 0.949 ± 0.28

Substance | amyloid nucleation score
LRFMCRYFLRQRNYEPWFYG | 0.1 ± 0.55
LRGRSPNYEALKMLYFFLLV | 0.314 ± 1.4
LRHFSRSF | 0.16 ± 0.29
LRKNSPTFRGSPCQQWYVER | 1.27 ± 0.56
LRKVGQGI | 0.066 ± 0.67
LRMFFDSTTILKLYERSWNI | 0.777 ± 1.2
LRNVVSYREDFECSWGCHRG | 0.724 ± 0.32
LRRGKLDLDHPLVNKWRKKG | -0.005 ± 0.67
LRSEEVFTHMRAGVAKSFWD | 0.461 ± 0.72
LRVKSSGDLSLSGSFDCDV | 0.199 ± 0.64
LRVMKKRLVDATHNFVPVAN | 4.33 ± 0.075
LRVPRCMIKRLHYGICPSSG | 0.094 ± 0.91
LRYAG | -0.87 ± 0.53
LRYIMPDND | -1.09 ± 1.5
LSCWLYNPGYCVSVEFC | 6.906 ± 0.056
LSFEIFMNVTRPSICHKVSL | -2.04 ± 2.4
LSFLLEASNHDWDGSLG | inactive
LSFLSSVSDLIKLSSIFYGY | -0.264 ± 0.37
LSGERNVMCSVWACLGRDYR | 8.102 ± 0.047
LSHRGVLVAMDRTMYPM | -0.621 ± 0.42
LSISRCSGRAV | inactive
LSKCTKRKFTMCWDSLVRK | 0.779 ± 0.26
LSKVVFGLWFCT | 0.299 ± 0.34
LSLKASDMRIGRYRSDKATF | 1.18 ± 0.79
LSLSLMLGDIPSTIMRGCFR | inactive

Substance | amyloid nucleation score
LSNYYHDGILVIMRSATNDH | 1.61 ± 0.41
LSPSSMN | inactive
LSRFRLFSYMYVLHKCNMGM | -0.777 ± 1.2
LSRTKGYC | 0.558 ± 0.33
LSSDADFKNNSLFRESDKYV | -0.297 ± 0.22
LSSTLCSIVF | 0.051 ± 0.57
LSTKKTQTMRRVW | 0.404 ± 0.44
LSTPYHQWLLAGRSRWASRK | 0.609 ± 0.49
LTEIVYTVGAEGTLWRSGAA | 0.298 ± 0.45
LTGCLNEYGVSNFMEVRVFR | -1.88 ± 2.7
LTGRVFRSYRYGCTGQIAVD | -0.624 ± 0.56
LTISTYSCWGEF | 0.456 ± 0.66
LTMLYMLLCDNSLMRDILPD | 0.951 ± 0.88
LTRDEGPIEDKNVEARFRVS | 0.098 ± 0.31
LTRDLMCEPVLCGLLPVSGR | 0.314 ± 1.4
LTRGQSLPMCATSVFEEYSH | 0.325 ± 0.43
LTRVWSVTCVCSFGRPYK | 2.13 ± 0.27
LTSCASLWEDRVVLSCLPGG | inactive
LTSTDISMGRCAVHQSYLFK | 2.69 ± 0.29
LTVGYSRYIPVRYGF | -1.08 ± 0.43
LTVVTAAFRATMVEHIL | -0.368 ± 0.4
LVALPMWIF | 0.402 ± 0.41
LVCSLTDNYDEE | 0.169 ± 0.97
LVFLTYSSASARIPLRI | 0.267 ± 0.29
LVGFSVSYKVSENFCSTL | inactive

Substance | amyloid nucleation score
LVGMCNHTYDS | 0.998 ± 0.66
LVGTTRLMRFWSRVMT | -0.171 ± 0.41
LVISSRREKR | 0.009 ± 0.57
LVLSVFWRNVVWAINLAVVS | -0.521 ± 0.31
LVMTNIVLRSVKERVHRLLR | -0.46 ± 0.81
LVPNLLVHGVYY | -2.39 ± 2.4
LVPVWARLR | -0.686 ± 0.65
LVRLVVLLKEPGEDRFIIEH | -0.427 ± 0.79
LVRRFLSWRIQSLDPIKK | -0.425 ± 0.76
LVRWSLLRFFL | 1.89 ± 0.59
LVSMVWLPM | 0.167 ± 0.84
LVTDPWISTLSSFHLWGGFM | 0.887 ± 0.7
LVTMLLNKYIVNRSHDGVRI | 0.966 ± 0.49
LVTRGFEVRGDHQVIKYFLA | -0.6 ± 0.49
LVVFLNC | -0.607 ± 0.39
LVVQLYS | -0.336 ± 0.62
LVVYRSKQRSYCCM | -0.359 ± 1.9
LWCCGGAFHSTDLGSAGLIM | 0.372 ± 1.4
LWFSYATCICIPRIPSNC | 6.26 ± 0.071
LWLRSLIVYYNSFVDMGGCA | 0.549 ± 0.3
LWLRYGL | 0.415 ± 0.72
LWRNKTHISVLQRGQVYHQT | 0.182 ± 0.57
LWSYRDFRQVSTELN | -1.15 ± 2.7
LWVTRRPVGGFMW | 0.721 ± 0.79
LWWSSSLLASTAQCQGTGFM | -0.255 ± 0.76

Substance | amyloid nucleation score
LWWYFHRTL | -0.168 ± 0.65
LYAAYCRQGTTHAIR | -0.389 ± 0.54
LYCNVISILACFVTTIRGRG | 3.64 ± 0.16
LYFQAFHYQQWCIWFYFYIL | 1.42 ± 0.49
LYHIGIGLKRSFNDAYV | 0.038 ± 0.44
LYIGIPYVGVWNL | 0.282 ± 1.2
LYKDGQGSKEAIVSRVDCMS | 0.892 ± 0.25
LYLSWSFSALSV | -0.593 ± 1.2
LYNFVGSNRIRFASCTQLLC | 1.87 ± 0.38
LYPMGYVRRCI | -0.29 ± 0.54
LYQCRNDCCYDWMLWYTWRS | 0.505 ± 0.34
LYRDSLKLF | -0.725 ± 0.49
LYRSLLN | -0.23 ± 1.1
LYWSPVWM | -0.232 ± 1.5
LYWSQIEVVNPQTTEGLNRD | -0.528 ± 0.61
MALLARFRGAFLVCSGFIAC | -1.56 ± 2.4
MARVC | -1.56 ± 2.4
MASTESNPIKLLKVHLKYTS | -0.97 ± 1.4
MAVSNLSDLRLMSMRHFS | -0.794 ± 0.95
MCIFICLPVTVYDNIFHSFL | 6.22 ± 0.096
MCLTRSSLEVRQVTIVMWSG | 0.387 ± 0.52
MCPSIQCYNNYILLQRSVIR | 7.08 ± 0.073
MCSERMGFFIVSGVVLKLTH | 0.814 ± 0.57
MCSSKPSGPLAVN | -1.02 ± 0.52
MDAFTNAWVMGWCMLHCARG | 0.524 ± 0.7

Substance | amyloid nucleation score
MDCCYYFFLIF | 4.15 ± 0.052
MDKSELK | 0.128 ± 0.86
MDLGRMSSGFMRSNMNKKVR | 0.519 ± 0.4
MDPIPREAQVKVLSSHTTIG | 0.606 ± 0.53
MDRDASYHGYIGHLLSWIGM | 0.886 ± 1.1
MDRIRFLFFW | 0.448 ± 0.69
MENEWIVTSCFLFWINFYSV | 4.23 ± 0.072
MENISLINGLETMYPIDRLT | -2.15 ± 2.4
MERPGNCVGWRRCPLHVTNG | -0.292 ± 1.2
MEWDAYVMI | 0.442 ± 0.84
MFAWLDDLFRY | -0.3 ± 0.38
MFCKAVSKERWMV | -0.269 ± 0.92
MFGKLLICYRLYK | 0.084 ± 0.75
MFLNII | -0.112 ± 0.74
MFQVVGRYNGVFLVTEPWTC | inactive
MFSVFNRKRN | -0.354 ± 0.26
MFTYDGRVEWVLA | -0.133 ± 0.45
MGILW | -0.328 ± 0.66
MGLSNSDADGRTLRNEHVKS | -1.35 ± 2.1
MGNIVTLHFSHVGHRYSKWV | inactive
MGRQEASMKRCTSGDVGGWL | 0.523 ± 0.78
MHHCSFSSLDFTVHK | -1.02 ± 2.4
MHMGFAWMSLIM | inactive
MHRSFFHVM | 2.33 ± 0.52
MIFPDQYYYSISPW | -0.115 ± 0.28

Substance | amyloid nucleation score
MIGNRY | 0.091 ± 0.26
MIIRLVLVGSSYKNVPSAEG | 0.137 ± 0.49
MILLKCIYY | 0.179 ± 0.39
MIMKYLSDVLTRIGHDIFFA | -0.872 ± 1.4
MINVYK | 4.33 ± 0.073
MISLHVL | -0.109 ± 1.3
MKDSGCPSGNNTALEGASLI | 0.269 ± 0.49
MKFRINVDLLLNLDNPGIKL | 0.165 ± 0.45
MKMRFVVSLMNSERSSGRNE | 0.9 ± 0.5
MKQALMGVVMIHWGGRSRV | 0.687 ± 0.54
MKQFIKNLNISLPPARTQLT | inactive
MLEESVLHSLLICGANSVFK | 0.195 ± 1.1
MLFPSVSKRLNVSALNCKNP | -0.083 ± 1.4
MLHYSARGFRRHK | 0.326 ± 1.2
MLKMTVYFHIMID | -0.065 ± 1.1
MLLLSVSLSLKID | 4.35 ± 0.095
MLLPSYVEF | 1.46 ± 0.34
MLNVEGNTLKSWIYGRHLVP | 0.097 ± 0.69
MLRMLAVQCFSSCIARLD | 2.05 ± 0.3
MLRTMG | 0.746 ± 0.5
MLSMFGWISSIFVYYYLNKR | 0.571 ± 0.17
MLSNGGLHVRSK | 1.31 ± 0.93
MLSVSWFAVAMVYMGMNNTC | 2.04 ± 0.48
MLWSKKGTGNYRYCRTGYTG | 0.322 ± 0.49
MLWTCKDNLCKDMTHVWSIY | inactive
